B1: 1121B (antibody, V domains shown)
VH: EVQLVQSGGGLVKPGGSLRLSCAASGFTFSSYSMNWVRQAPGKGLEWVSSISSSSSYIYYADSVKGRFTISRDNAKNSLYLQMNSLRAEDTAVYYCARVTDAFDIWGQGTMVTVSS
VL: EIVMTQSPATLSLSPGERATLSCRASQSVSSYLAWYQQKPGQAPRLLIYDSSNRATGIPARFSGSGSGTDFTLTISSLEPEDFATYYCLQHNTFPPTFGQGTKVEIKR
notes: Anti-VEGFR2 antibody of US 2009/0306348, positive control; The entries are called variable domains but run into the start of the constant domains
B2: 1121N (antibody, V domains shown)
VH: B1 VH
VL: DIQMTQSPSSVSASIGDRVTITCRASQGIDNWLGWYQQKPGKAPKLLIYDASNLDTGVPSRFSGSGSGTYFTLTISSLQAEDFAVYFCQQAKAFPPTFGGGTKVDIKG
notes: Anti-VEGFR2 antibody of U.S. Pat. No. 7,498,414, positive control; Entries run into the start of the constant domains

Legend:
VEGFR2 = target: T1, VEGFR2 (UniProt P35968 20-764, limits assumed); assay: SPR; antigen construct and format not stated
T1 construct: The SPR paragraphs name neither antigen construct nor format

VEGFR2-Fc = target: T2, VEGFR2-Fc (UniProt P35968 20-764, limits assumed); assay: ELISA, VEGFR2-Fc coated, anti-human kappa-HRP, OD450
T2 construct: also called biotinylated VEGFR2-Fc; not shown: Fc

Mouse VEGFR2-Fc = target: T3, Mouse VEGFR2-Fc (mouse, UniProt P35918 20-762, limits assumed); assay: ELISA, mouse VEGFR2-Fc coated, anti-human kappa-HRP, A450
T3 construct: not shown: Fc

VEGFR2-AP [1] = target: T4, VEGFR2-AP (UniProt P35968 20-764); assay: ELISA, antibody captured with anti-Fc, VEGFR2-AP added (axis printed OD450)
T4 construct: also called AP-conjugated VEGFR2; AP-conjugated VEGFR; not shown: alkaline phosphatase (AP)

VEGFR2-AP [2] = target: T4, VEGFR2-AP; assay: ELISA, antibody captured with anti-Fd, VEGFR2-AP added (axis printed OD450)
[3] = target: T5, VEGFR2-D5-7-AP fusion protein (UniProt P35968 421-764); assay: ELISA: antibody captured with sheep anti-human Fd, VEGFR2-D5-7-AP added, pNPP, A405
T5 construct: domain: domains 5-7; also called domains 5-7 of VEGFR2; not shown: alkaline phosphatase (AP) fusion partner

VEGFR2-AP [4] = target: T4, VEGFR2-AP; assay: competition ELISA: antibody pre-incubated with VEGFR2-AP, mixture added to VEGF-coated wells, A405; blocked ligand: VEGF
Description: Each antibody:antigen mixture was added to VEGF-coated wells of a microtiter dish. Following an incubation and wash, pNPP was added to the wells and incubated for 30 minutes. AP activity was measured by monitoring the increase in absorbance at 405 nm.

[5] = target: T6, recombinant human VEGFR1-Fc fusion protein (R&D Systems) (human, UniProt P17948-2 27-687, limits assumed); assay: ELISA, human VEGFR1-Fc coated, goat anti-human F(ab)'2-HRP, OD450
T6 construct: Bought; not shown: Fc

[6] = target: T7, human VEGFR3-Fc (R&D Systems) (human, UniProt P35916 25-776); assay: ELISA, human VEGFR3-Fc coated, goat anti-human F(ab)'2-HRP, OD450
T7 construct: Bought; not shown: Fc
T7 sequence (looked up): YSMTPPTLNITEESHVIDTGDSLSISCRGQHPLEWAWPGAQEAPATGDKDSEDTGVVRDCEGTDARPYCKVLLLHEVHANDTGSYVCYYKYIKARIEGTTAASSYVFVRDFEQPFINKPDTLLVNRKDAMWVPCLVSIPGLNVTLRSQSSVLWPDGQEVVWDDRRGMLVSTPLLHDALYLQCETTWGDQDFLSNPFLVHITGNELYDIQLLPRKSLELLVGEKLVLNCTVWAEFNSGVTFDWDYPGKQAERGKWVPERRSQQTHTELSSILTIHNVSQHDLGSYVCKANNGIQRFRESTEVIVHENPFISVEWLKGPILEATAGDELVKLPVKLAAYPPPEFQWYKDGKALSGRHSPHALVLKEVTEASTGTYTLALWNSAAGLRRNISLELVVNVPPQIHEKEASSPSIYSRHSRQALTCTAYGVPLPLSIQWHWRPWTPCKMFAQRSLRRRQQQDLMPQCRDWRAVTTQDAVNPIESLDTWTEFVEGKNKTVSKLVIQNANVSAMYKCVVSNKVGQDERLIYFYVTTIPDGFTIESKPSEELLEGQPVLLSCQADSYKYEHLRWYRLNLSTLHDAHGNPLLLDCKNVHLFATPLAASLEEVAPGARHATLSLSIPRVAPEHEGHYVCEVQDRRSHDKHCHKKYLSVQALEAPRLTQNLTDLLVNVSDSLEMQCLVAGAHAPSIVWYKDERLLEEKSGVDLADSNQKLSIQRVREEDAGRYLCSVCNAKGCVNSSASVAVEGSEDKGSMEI

T1 sequence (P35968 20-764 limits assumed): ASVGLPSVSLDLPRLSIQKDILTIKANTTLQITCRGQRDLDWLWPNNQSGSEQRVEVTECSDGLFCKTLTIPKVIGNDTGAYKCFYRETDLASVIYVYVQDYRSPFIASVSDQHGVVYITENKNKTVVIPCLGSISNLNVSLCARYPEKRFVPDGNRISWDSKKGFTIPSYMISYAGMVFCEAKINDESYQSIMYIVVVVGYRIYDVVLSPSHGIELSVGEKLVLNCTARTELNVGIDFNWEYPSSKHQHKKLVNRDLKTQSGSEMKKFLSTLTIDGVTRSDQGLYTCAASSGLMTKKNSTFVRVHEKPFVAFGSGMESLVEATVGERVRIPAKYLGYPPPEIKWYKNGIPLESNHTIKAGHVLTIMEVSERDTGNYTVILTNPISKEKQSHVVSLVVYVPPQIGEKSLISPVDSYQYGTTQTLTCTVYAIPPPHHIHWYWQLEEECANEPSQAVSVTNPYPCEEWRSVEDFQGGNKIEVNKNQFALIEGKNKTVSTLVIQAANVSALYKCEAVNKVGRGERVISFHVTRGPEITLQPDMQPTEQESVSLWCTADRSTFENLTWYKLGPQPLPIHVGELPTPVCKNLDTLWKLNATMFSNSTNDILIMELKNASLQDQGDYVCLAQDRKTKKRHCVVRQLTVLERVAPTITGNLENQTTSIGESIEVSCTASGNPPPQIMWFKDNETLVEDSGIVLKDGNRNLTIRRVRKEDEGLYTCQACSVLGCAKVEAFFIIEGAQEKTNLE
T4 sequence (P35968 20-764): as the sequence (P35968 20-764 limits assumed) above
T3 sequence (P35918 20-762 limits assumed): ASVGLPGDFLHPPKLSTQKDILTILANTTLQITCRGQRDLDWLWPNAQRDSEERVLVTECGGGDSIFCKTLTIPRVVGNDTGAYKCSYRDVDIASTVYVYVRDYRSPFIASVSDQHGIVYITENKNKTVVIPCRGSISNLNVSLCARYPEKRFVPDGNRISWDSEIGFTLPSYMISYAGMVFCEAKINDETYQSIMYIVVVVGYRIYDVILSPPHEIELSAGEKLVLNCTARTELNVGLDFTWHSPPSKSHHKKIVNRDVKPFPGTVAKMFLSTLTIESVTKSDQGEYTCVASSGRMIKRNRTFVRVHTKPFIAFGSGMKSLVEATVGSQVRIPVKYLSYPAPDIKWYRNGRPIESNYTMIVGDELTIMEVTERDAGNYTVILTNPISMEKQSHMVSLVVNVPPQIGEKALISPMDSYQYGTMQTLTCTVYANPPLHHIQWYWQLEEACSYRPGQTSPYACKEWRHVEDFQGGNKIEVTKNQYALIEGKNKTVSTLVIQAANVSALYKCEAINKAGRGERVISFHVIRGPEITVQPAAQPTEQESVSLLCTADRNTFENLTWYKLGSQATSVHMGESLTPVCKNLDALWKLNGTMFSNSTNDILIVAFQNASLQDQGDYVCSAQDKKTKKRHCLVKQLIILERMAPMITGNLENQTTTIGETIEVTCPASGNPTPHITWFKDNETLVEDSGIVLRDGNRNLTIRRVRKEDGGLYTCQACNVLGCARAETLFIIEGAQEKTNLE
T6 sequence (P17948 other isoform, or with tags, fused parts or gaps limits assumed): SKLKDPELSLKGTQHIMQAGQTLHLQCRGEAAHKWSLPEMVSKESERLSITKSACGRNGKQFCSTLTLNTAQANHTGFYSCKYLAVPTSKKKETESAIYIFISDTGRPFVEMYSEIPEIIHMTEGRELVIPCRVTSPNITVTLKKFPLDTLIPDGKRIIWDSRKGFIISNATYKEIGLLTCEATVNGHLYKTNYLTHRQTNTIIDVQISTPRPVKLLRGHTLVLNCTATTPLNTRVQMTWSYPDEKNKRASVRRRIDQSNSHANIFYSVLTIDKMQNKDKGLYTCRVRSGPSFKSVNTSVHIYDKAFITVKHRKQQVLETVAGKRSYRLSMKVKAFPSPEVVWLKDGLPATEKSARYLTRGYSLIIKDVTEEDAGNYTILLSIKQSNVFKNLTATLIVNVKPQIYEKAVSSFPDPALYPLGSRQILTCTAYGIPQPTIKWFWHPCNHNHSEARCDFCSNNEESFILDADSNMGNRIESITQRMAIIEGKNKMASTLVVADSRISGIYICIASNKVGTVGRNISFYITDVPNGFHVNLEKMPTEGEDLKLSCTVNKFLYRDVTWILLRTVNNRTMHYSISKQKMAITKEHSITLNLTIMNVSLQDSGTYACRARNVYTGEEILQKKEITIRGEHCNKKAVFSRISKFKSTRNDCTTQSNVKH
T5 sequence (P35968 421-764): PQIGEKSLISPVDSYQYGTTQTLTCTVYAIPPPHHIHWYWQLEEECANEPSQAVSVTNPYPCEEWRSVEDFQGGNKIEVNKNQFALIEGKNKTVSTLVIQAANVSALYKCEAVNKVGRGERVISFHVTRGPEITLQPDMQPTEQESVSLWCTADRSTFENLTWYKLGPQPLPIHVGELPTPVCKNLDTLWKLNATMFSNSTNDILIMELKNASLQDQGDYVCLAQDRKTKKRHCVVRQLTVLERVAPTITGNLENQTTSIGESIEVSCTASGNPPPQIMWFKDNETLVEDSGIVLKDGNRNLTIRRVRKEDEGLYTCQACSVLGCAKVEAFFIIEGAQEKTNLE
T2 sequence (P35968 20-764 limits assumed): as the sequence (P35968 20-764 limits assumed) above

| Binder | Kd (VEGFR2) [nM] | koff (VEGFR2) [s⁻¹] | kon (VEGFR2) [M⁻¹ s⁻¹] | EC50 (read off the curve) (VEGFR2-Fc) [µg/mL] | binding result (Mouse VEGFR2-Fc) | EC50 (read off the curve) (VEGFR2-AP [1]) [µg/mL] | EC50 (read off the curve) (VEGFR2-AP [2]) [µg/mL] | binding result [3] | IC50 (read off the curve) (VEGFR2-AP [4]) [µg/mL] | binding result [5] | EC50 (read off the curve) [6] [µg/mL] |
| --- | --- | --- | --- | --- | --- | --- | --- | --- | --- | --- | --- |
| B1 | 1.28 | 0.000962 | 752000 | ~0.5 | no binding (tested: 500 µg/mL) | ~0.3 | ~0.6 | no binding (tested: 3 µg/mL) | ~0.05 |  |  |
| B2 |  |  |  |  | no binding (tested: 500 µg/mL) |  |  |  |  | no binding (tested: 20 µg/mL) | ~1 |

From US20180193456A1 (HENLIUS BIOTECH, published 2018)
